This note sets out measurements from patent US20220195388A1.

Assay [1] deals with CD28 on the surface of PBMCs and T cells (human) (UniProt P10747). Put plainly: flow cytometry, selected CD28+ cells after D-biotin and washing, stained with an α-Ig kappa light chain mAb to detect remaining Fab monomers; live CD3+ cells. The same mAb on cells before selection (negative control, no Fab) gives 2.73 in the gate.
Assay [2] addresses CD3 (TCR/CD3 complex) on the surface of Jurkat cells, PBMCs and T responder cells (UniProt P07766). The experiment in a line: flow cytometry, freshly isolated PBMCs stained with PE-labeled OKT3 Fab-multimers, before D-biotin; only live (PI negative) cells shown.
Assay [3] shares this target. The experiment in a line: flow cytometry, second staining with PE-labeled OKT3 Fab-multimers of PBMCs that had been stained, treated with D-biotin and washed (control); live cells.
Assay [4] has the same target. Put plainly: flow cytometry, PBMCs stained with PE-labeled OKT3 Fab-multimers and then treated with D-biotin, which disrupts the Fab to Strep-Tactin bond; remaining PE signal on live cells.
Assay [5] deals with CD28 on the surface of PBMCs and T cells (human) (UniProt P10747). Put plainly: flow cytometry, freshly isolated PBMCs before selection stained with fluorescent αCD28 Fab-multimers; only live (PI negative) CD3+ cells shown.
The target is the same in assay [6]. The experiment in a line: flow cytometry, CD28+ cells isolated by Fab-multimer magnetic selection, released with D-biotin, washed and stained again with CD28 Fab-multimers; live CD3+ cells.

Chain of CD3 (TCR/CD3 complex) on the surface of Jurkat cells, PBMCs and T responder cells (P07766 23-207, one chain of several): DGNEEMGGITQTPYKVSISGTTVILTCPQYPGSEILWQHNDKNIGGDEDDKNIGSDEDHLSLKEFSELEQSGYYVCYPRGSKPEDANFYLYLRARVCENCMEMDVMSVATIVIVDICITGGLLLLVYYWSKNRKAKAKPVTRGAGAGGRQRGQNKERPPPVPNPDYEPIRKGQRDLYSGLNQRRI

In assay [1], “αCD28 Fab fragment derived from the monoclonal anti-human CD28 antibody CD28.3, heavy chain C-terminally fused to the Twin-Strep-tag (monomeric)” returned a percentage of cells within gate of 5.91%.

Consider “OKT3 Fab fragments multimerized with Strep-Tactin”, for which the percentage of cells within gate was 64.5% in assay [2], 64.7% in assay [3] and 0.005% in assay [4].

In the case of “anti-CD28 Fab fragments (from CD28.3) multimerized with Strep-Tactin (from UniProt P22629 38-163)”, the percentage of cells within gate in assay [5] was found to be 77.9%; in assay [6] it was 96.7%.
